This note sets out measurements from patent US20200022914A1, “LIPOSOMAL COMPOSITIONS AND SOLID ORAL DOSAGE FORMS COMPRISING THE SAME” (UNIVERSITÄT HEIDELBERG, priority 2017, published 2020).

This data set in a line: Single dose PK study of oral Adalimumab in comparison with intravenous administration. Format: in vivo. The following applies: beagle dogs; oral 15 mg in lyophilized liposomes with 1 mol-% cycR9 conjugate in enteric coated capsule vs 3 mg intravenous; comparison of AUC values, ELISA. Here is the method:
Single dose PK study of oral Adalimumab (Humira™) in comparison with Adalimumab after intravenous administration. As animals, 2 beagle dogs were used. The oral dose of Adalimumab was 15 mg encapsulated in liposomes containing 1-mol% of the cycR9 conjugate described before. The liposomes were lyophilized and afterwards filled in an enteric coated capsule. The intravenous dose was 3 mg. The blood sampling time points for the oral administration were: 0 (pre-dose), 0:15, 0:30, 1:00, 2:00, 4:00, 8:00, 24:00, 48:00, 96:00 h p.a. The blood sampling time points for the intravenous administration were: 0 (pre-dose), 0:15, 0:30, 1:00, 2:00, 4:00, 8:00, 24:00, 48:00, 96:00 h p.a. All blood samples were analyzed by ELISA measurements (IDKmonitor® Adalimumab drug level ELISA, Immundiagnostik AG, Bensheim).
On the technique in general: In an ELISA, binding on a coated surface is turned into a signal by an enzyme label.

Turning to Adalimumab, the “bioavailability after oral administration” value is given as 3.55%.
